Drawing on patent US20170360875A1 (priority 2014, published 2017), this text covers OD 405 nm for one substance.

Several values for one entry are separate records, joined by “and”; a condition that tells them apart may be missing. Equal entries are not always repeated.

The assay has as its target Sudan Ebolavirus, Boniface (Bei Resources NR-31810; sonicated, gamma-irradiated infected Vero E6 cell pellets).

Consider “preformed immune complex of peroxidase-rabbit anti-peroxidase IgG (PAP complex) (from UniProt P00433 31-338)”, for which the OD 405 nm is 1.42 OD 405 nm and 1.29 OD 405 nm and 1.08 OD 405 nm.
